# Measurements reported in the DeepSol protein solubility set.
# Test: soluble on expression in E. coli; label from the status in PepcDB or PDB records
row,Sequence,soluble on expression in E. coli
1,TAYLGPAGSWTHQACLDLYGADGLVPLSREALFAAYADGKVERACVPVATSVVGLTPYMEDVLALPRVVVVAEYPKMLGYSLLARPGTRREDIKEVHAHPVAFEEVRPWLEREMPGARRVPAASGGAAAQAVAASATQDKASFGPRVGASVYQLVSLADGIEEGPHNVTRWWVLGRDMP,not soluble
2,AAPTAIEHMEPPFWWAGMQHKGLQLMVHGRDIGRMEAALDYPGVRLVSPTRVPNANYLFVDLEIGPEAQPGSFDIVFKGDGRSERYRYRLLAREQGSAQRQGFGPGDAIYQIMPDRFANGDPSNDNVAGMREQADRRHGGGRHGGDIRGTIDHLDYIAGLGFTQLWPTPLVENDAAAYSYHGYAATDHYRIDPRYGSNEDFVRLSTEARKRGMGLIQDVVLSHIGKHHWWMKDLPTPDWINYGGKFVPTQHHRVAVQDPYAAQADSENFTKGWFVEGMPDLNQTNPLVANYLIQNNIWWIEYAGLSGLRIDTYGYSDGAFLTEYTRRLMAEYPRLNMVGQEWSTRVPVVARWQRGKANFDGYTSHLPSLMDFPLVDAMRNALSKTGEENGLNEVYETLSLDYLYPEPQNLVLFGGNHDMARMFSAAGEDFDRWRMNLVFLMTMPRIPQFYSGDEILMTSTVKGRDDASYRRDFPGGWAGDKANAFSGAGLTSQQRAAQDLVRKLANWRKNQPVIHNGRLMHFGPEENTWVYFRYNKDKRIMVAMNNNDKPMTLPTARFQEMLKGAPSGVDFLSGKTVGLGRELRLAPKSVVVIELPGLPEA,soluble
3,MLTFALTIVRAGETQYNRDKLLQGQGIDTPLSDTGHQQAAAAGRYLKDLHFTNVFVSNLQRAIQTAEIILGNNLHSSATEMILDPLLRERGFGVAEGRPKEHLKNMANAAGQSCRDYTPPGGETLEQVKTRFKMFLKSLFQRMFEEHGSALSSVPSEADQPVIAGLADDGAQNVPVHALMVSHGAFIRISVRHLVEDLQCCLPAGLKMNQVFSPCPNTGISRFIFTIHREESVLRATRIQGVFINRKDHLEEVKNSDLEHHHHHH,soluble
4,MDYSSSLPQSDRSTSTAAGHWVLARAGKRVLRPGGLKLTKRMLSAADMQGKEIVEFAPGLGRTAQLIVTEGVSSYVGVDQDSAAVARVEAIVKPHGGTVINAKAHDTGLSGESAEVVVGEAMLTMQGEKAKAEIVAEAFRLLKPGGYYAIHELGLTPNDIDPELADGLRKQLAQTIRVNARPLTENEWRTVLTNAGFEVEWISFAPMALLSPKRNLADEGFLGVVRIIRNLIRDKALRARVFQMRSTFNKYRDHLTGIAIVAKKPSN,not soluble
5,MSHALRAVFLDHASLDLGDLDMRPLRAAFDELQLHAASQPQEVAARLHDARVAISNKVPIDAQCIAACPELELILISATGTNNIDLAAARERGIVVANCHGYGTPSVAQHTLALLLALATRLPDYQQAVRSGRWQQSSQFCLLDFPIVELEGKTLGLLGHGELGGAVARLAEAFGMRVLLGQLPGRPARADRLPLGELLPRVDALTLHCPLTEDTRGMLGSAELALMKPGAFLVNTARGGLVDEQALADALRGGHLGGAATDVLSVEPPRNGNPLLAPDIPRLIVTPHNAWGSREARQRIVGQLAENAEAWKAGR,not soluble
6,MGSSHHHHHHSSGLVPRGSHMLEDPMGTLIRATTLSRLSFIDVVNDNGFYQFEKPKEGRKYVATLDCSEGRGQDYHALQIIDITEFPYKQVAVYHSNTTSHFILPDIVFKYLMMYNECPVYIELNSTGVSIAKSLAMDLEYDNIICDSFIDLGMKQSKRSKAMGCSALKDLIEKDKLIINHKGTIQELRTFSEKGVSWAAEEGFHDDLVMSLVIFGWLTTQEKFAEYAGKDE,soluble
7,MGSDKIHHHHHHMKKYVLSLALLGSLLGASELKYQEFDGFKSPESIFVDKNYVYVSNVGEKLEPLAKDNDGFISKLDKNGKVLEYKFLTHLNAPKGMMEIGKTLYVVDIDVLRGFDLKTKKEIFNLPIKGAIFLNDIEKLDDNTLLVSDTGTGLILKVDLKTKQYDELLKLDLAKFGGPNGLYLDRKKHKLFIAGYHPDGVSGGVVMAYDLNTKELSIIKNEKESYDGIVPYKDGLLVSSWGNNLNGYIYNLDNVKSVKLELPLMKGPADIFIEGNILWIPKMVEGKIFKVELNK,not soluble
8,MGSDKIHHHHHHMINQINFKTSHGGSREEGYIDFSASVNPYPPEWTDEMFERAKKISTFYPYYEKLEEELSDLIGEPITITAGITEALYLLGVWMRGRKVIIPKHTYGEYERISRMFGGRVIKGPNDPGKLAEFVERNSFVFFCNPNNPDGKFYREKEMKPLLDAIQDTNSILILDEAFIDFVKKPESPEGENIIRLRTFTKSYGLPGVRVGYVIGFVDAFRSVRMPWSIGSTGVAFLEFLLKDNFKHLRKTLPLIWKEKERIEKELKVKSDANFFIMKVREGIIEKLKENGILVRDCKSFGLPGYIRFSVRRREENDKLINILRKTLNT,not soluble
